In series [1] the target is T1, FadRSa (Sulfolobus acidocaldarius) (UniProt Q4J9S1).
T1 sequence: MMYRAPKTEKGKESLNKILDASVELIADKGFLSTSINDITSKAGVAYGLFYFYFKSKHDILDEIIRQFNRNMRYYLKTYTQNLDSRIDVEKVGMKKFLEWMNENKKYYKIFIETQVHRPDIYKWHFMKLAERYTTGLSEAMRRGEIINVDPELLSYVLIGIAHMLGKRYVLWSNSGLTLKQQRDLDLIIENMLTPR
The experiment in a line: footprinting. Particulars: EMSA/DNase I: 20 mM Tris-HCl pH 8.0, 1 mM MgCl2, 0.1 mM DTT, 12.5% glycerol, 50 mM NaCl, 0.4 mM EDTA, 37 C; EMSA with about 0.1 nM 32P-DNA and excess …. For orientation: Mobility shift assays separate free from complexed probe on a gel.

Series [2] addresses T1, FadRSa (Sulfolobus acidocaldarius). The experiment in a line: Cu-phenanthroline footprinting. The settings on record: EMSA/DNase I: 20 mM Tris-HCl pH 8.0, 1 mM MgCl2, 0.1 mM DTT, 12.5% glycerol, 50 mM NaCl, 0.4 mM EDTA, 37 C; EMSA with about 0.1 nM 32P-DNA and excess ….
The target is the same in series [3]. As to the kind of experiment: EMSA. Particulars: EMSA/DNase I: 20 mM Tris-HCl pH 8.0, 1 mM MgCl2, 0.1 mM DTT, 12.5% glycerol, 50 mM NaCl, 0.4 mM EDTA, 37 C; EMSA with about 0.1 nM 32P-DNA and excess ….
For series [4] the target is unchanged. The experiment in a line: DNase I footprinting. The settings on record: EMSA/DNase I: 20 mM Tris-HCl pH 8.0, 1 mM MgCl2, 0.1 mM DTT, 12.5% glycerol, 50 mM NaCl, 0.4 mM EDTA, 37 C; EMSA with about 0.1 nM 32P-DNA and excess ….
The target in series [5] is T2, FadRSa (Sulfolobus acidocaldarius, UniProt Q4J9S1).
T2 construct: gene Saci_1107; full-length, recombinant in E. coli Rosetta (DE3), His-tagged (N-terminal from pET45b or C-terminal from pET24a; mutants C-terminal), tag kept; homodimer, 44 kDa
As to the kind of experiment: EMSA, release of FadRSa from operator DNA. Type of series: binding. Particulars: 154-bp Saci_1106 operator probe, pH 8.0, 37 °C; allosteric inducer.

The target in series [6] is T3, FadRSa (Sulfolobus acidocaldarius, UniProt Q4J9S1, M101A).
T3 construct: gene Saci_1107; full-length, recombinant in E. coli Rosetta (DE3), His-tagged (N-terminal from pET45b or C-terminal from pET24a; mutants C-terminal), tag kept; homodimer, 44 kDa
T3 sequence (Q4J9S1 entry or part of it M101A): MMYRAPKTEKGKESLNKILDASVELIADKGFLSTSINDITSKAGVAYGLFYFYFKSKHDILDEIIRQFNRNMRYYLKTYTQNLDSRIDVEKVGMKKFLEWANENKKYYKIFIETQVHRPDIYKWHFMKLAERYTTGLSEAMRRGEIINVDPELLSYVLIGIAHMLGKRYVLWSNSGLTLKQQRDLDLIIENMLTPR
The experiment in a line: EMSA, ligand response of mutant (fraction of bound DNA). Type of series: binding. Particulars: pH 8.0, 37 °C; allosteric inducer.

Series [7] concerns the molecule itself. As to the kind of experiment: SEC; free purified FadRSa; apparent molecular weight from a calibrated column (Superdex 200 Increase 10/30 GL, 20 mM Na2HPO4 pH 7.4, 150 mM NaCl). For orientation: Size exclusion chromatography separates by hydrodynamic size, large species first.
Series [8] concerns the molecule itself. The experiment in a line: crystal structure; SeMet FadRSa, SAD, 2.4 Å, space group P21, two molecules per asymmetric unit; acyl-CoA in subunit B.
Series [9] deals with the molecule itself. As to the kind of experiment: native gel or EMSA; dimer with dimer on operator DNA: 45-bp 32P-labelled wildtype or mutated Saci_1123 operator probes; 20 mM Tris-HCl pH 8.0, 1 mM MgCl2, 0.1 mM DTT, 12.5% glycerol, 50 mM NaCl, 0.4 mM EDTA, 37 °C; 6% acrylamide gels.
Series [10] deals with T4, FadRSa (Sulfolobus acidocaldarius, UniProt Q4J9S1 1-196).
T4 sequence: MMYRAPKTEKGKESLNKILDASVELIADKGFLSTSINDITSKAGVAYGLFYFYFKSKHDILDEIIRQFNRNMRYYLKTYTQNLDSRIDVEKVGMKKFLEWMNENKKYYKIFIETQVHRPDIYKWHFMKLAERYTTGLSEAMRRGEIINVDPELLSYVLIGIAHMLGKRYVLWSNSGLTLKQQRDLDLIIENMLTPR
As to the kind of experiment: EMSA; single complex B; EMSA/DNase I: 20 mM Tris-HCl pH 8.0, 1 mM MgCl2, 0.1 mM DTT, 12.5% glycerol, 50 mM NaCl, 0.4 mM EDTA, 37 C; EMSA with about 0.1 nM 32P-DNA and excess nonspecific competitor DNA. Particulars: protein: recombinant; (N-terminal pET45b or C-terminal pET24a His tag); chain copies: 2; label: 32P 5' end (EMSA); none (SEC); blunt.

Series [11] has as its target T4, FadRSa. As to the kind of experiment: EMSA; two complexes B1 and B2; EMSA/DNase I: 20 mM Tris-HCl pH 8.0, 1 mM MgCl2, 0.1 mM DTT, 12.5% glycerol, 50 mM NaCl, 0.4 mM EDTA, 37 C; EMSA with about 0.1 nM 32P-DNA and excess nonspecific competitor DNA. The settings on record: protein: recombinant; (N-terminal pET45b or C-terminal pET24a His tag); chain copies: 2; label: 32P 5' end; blunt.

Series [12] has as its target T4, FadRSa. The experiment in a line: SEC; 40:1 protein:DNA; complex B2, 179 kDa, two dimers; EMSA/DNase I: 20 mM Tris-HCl pH 8.0, 1 mM MgCl2, 0.1 mM DTT, 12.5% glycerol, 50 mM NaCl, 0.4 mM EDTA, 37 C; EMSA with about 0.1 nM 32P-DNA and excess nonspecific competitor DNA. Particulars: protein: recombinant; (N-terminal pET45b or C-terminal pET24a His tag); chain copies: 2; label: 32P 5' end (EMSA); none (SEC); blunt.

Series [13] addresses T4, FadRSa. The experiment in a line: X-ray crystallography; 3.29 A; three dimers with two duplexes; EMSA/DNase I: 20 mM Tris-HCl pH 8.0, 1 mM MgCl2, 0.1 mM DTT, 12.5% glycerol, 50 mM NaCl, 0.4 mM EDTA, 37 C; EMSA with about 0.1 nM 32P-DNA and excess nonspecific competitor DNA. Particulars: protein: recombinant; (N-terminal pET45b or C-terminal pET24a His tag); chain copies: 2; blunt.

“CTACTTTCTAATATCACTATATTCACGCCTGGCAGACCCGACCTACTATGTTTAAACTTTTATAAAGTTGACATTATAATCAACTGATTATTTTAAAGGCAGTTCTAATTTTTCAAATAAACATAACACTAATCCTATAGATATAACTAATAAC (double strand) [Saci_1123 peak 4 footprint fragment]”: the binding entry in [1] is “binds”.
As to “CGCCCTTTAGAGTGTGGAAGAAGTCAGTGGCACAGTTCTCTTCGTTTAAGCTTTTTTGTATCTCTTCATCAAAATTAAACTATTTGTTTTATTCATTATATCTTAATGTATTTGTGTAAATAATCTTCTTTATTCTAATCAATAAAATTATCGGAGAAGTTTATTATCGAGTTTACCTTTTAACTACAATGATAGTCGACTCAAAAATCAAGTAGTAAAGGTGGTGTGATGTATAGGGCTCC (double strand) [Saci_1107 (fadRSa) peak 2 fragment]”, the binding result in series [2], in series [3] and in series [4] was “binds” throughout.
For “CTTCACTCCAAATCCTATTAGGAAAGCTGACACTGAACCGACCTTTTAACTACAATGATAGTCGACTCAAAAATCAAGTATAATATAGTCGAAATATGCCCTCTTGAATAAAACCATGAAATATAAATGAGTCTATTCTGATCTGATAAAGTTC (double strand) [Saci_1106 peak 1 fragment]”, the binding entry in series [3] and in series [4] was “binds” in each case.
With `CCCCCCCC/C=C\CCCCCCCC(=O)SCCNC(=O)CCNC(=O)[C@H](O)C(C)(C)COP(=O)(O)OP(=O)(O)OC[C@H]1O[C@@H](n2cnc3c(N)ncnc32)[C@H](O)[C@@H]1OP(=O)(O)O` [oleoyl-CoA], the “EMSA, release of FadRSa from operator DNA” value at FadRSa [5] was “addition of acetyl-CoA or hexanoyl-CoA does not affect sensitivity of the protein to oleoyl-CoA”. Moreover, on FadRSa [6], the “EMSA, ligand response of mutant (fraction of bound DNA)” value is “alanine mutation of the allosterically altered Met101 residue desensitizes the protein to oleoyl-CoA”.

B1: FadRSa (TetR-family transcriptional regulator encoded by Saci_1107), recombinant His-tagged (natural protein, Sulfolobus acidocaldarius, UniProt Q4J9S1 1-196, looked up)
chain: MMYRAPKTEKGKESLNKILDASVELIADKGFLSTSINDITSKAGVAYGLFYFYFKSKHDILDEIIRQFNRNMRYYLKTYTQNLDSRIDVEKVGMKKFLEWMNENKKYYKIFIETQVHRPDIYKWHFMKLAERYTTGLSEAMRRGEIINVDPELLSYVLIGIAHMLGKRYVLWSNSGLTLKQQRDLDLIIENMLTPR
notes: FadRSa, TetR-family regulator encoded by Saci_1107 of Sulfolobus acidocaldarius; the fadRSa coding region amplified from genomic DNA; An N-terminally His-tagged (pET45b) and a C-terminally His-tagged (pET24a) construct were both made; also called wildtype FadRSa; source: E. coli Rosetta (DE3), purified (heat treatment 80 °C, His GraviTrap IMAC)
Take B1: the stoichiometry N (in general, a count of units in the complex or per binding partner) in series [7] worked out at 2.

B2: SeMet FadRSa (selenomethionine-substituted FadRSa) (natural protein, Sulfolobus acidocaldarius, UniProt Q4J9S1 1-196, looked up)
chain: MMYRAPKTEKGKESLNKILDASVELIADKGFLSTSINDITSKAGVAYGLFYFYFKSKHDILDEIIRQFNRNMRYYLKTYTQNLDSRIDVEKVGMKKFLEWMNENKKYYKIFIETQVHRPDIYKWHFMKLAERYTTGLSEAMRRGEIINVDPELLSYVLIGIAHMLGKRYVLWSNSGLTLKQQRDLDLIIENMLTPR
modifications: selenomethionine-substituted
notes: FadRSa, TetR-family regulator encoded by Saci_1107 of Sulfolobus acidocaldarius; the fadRSa coding region in pET45b (BamHI/HindIII); One subunit (B) of the crystallised dimer carried an acyl-CoA, likely derived from E. coli; also called SeMet-substituted FadRSa; SeMet-derivated FadRSa
As to B2, in series [8], the binding result was “binds”.

B3: FadRSa N37A (natural protein, Sulfolobus acidocaldarius, UniProt Q4J9S1 1-196, looked up)
chain: MMYRAPKTEKGKESLNKILDASVELIADKGFLSTSIADITSKAGVAYGLFYFYFKSKHDILDEIIRQFNRNMRYYLKTYTQNLDSRIDVEKVGMKKFLEWMNENKKYYKIFIETQVHRPDIYKWHFMKLAERYTTGLSEAMRRGEIINVDPELLSYVLIGIAHMLGKRYVLWSNSGLTLKQQRDLDLIIENMLTPR
notes: FadRSa, encoded by Saci_1107 of Sulfolobus acidocaldarius; made by site-directed mutagenesis with pET24axfadRSaNdenull as template; also called N37A mutant FadRSa; source: E. coli Rosetta (DE3), purified (heat treatment 80 °C, His GraviTrap IMAC)
With B3, the binding result in [9] is “binds”.

B4: Saci_1123 operator 45-bp (dsDNA)
DNA 1: ACTACATAATCAGTTGATTATAATGTCAACTTTATAAAGTGGTGT
DNA 2: ACACCACTTTATAAAGTTGACATTATAATCAACTGATTATGTAGT
In the case of B4, the binding result with FadRSa [10] was “binds”.

B5: mutated Saci_1123 operator 45-bp (dsDNA)
DNA 1: ACTACATAGTCAGTTGATTCTAATGTCAACTTTATAAAGTGGTGT
DNA 2: ACACCACTTTATAAAGTTGACATTAGAATCAACTGACTATGTAGT
Turning to B5, in the series with FadRSa [11], the binding result was “binds”.

B6: fadRSa operator 45-bp (dsDNA)
DNA 1: ACTACAATGATAGTCGACTCAAAAATCAAGTAGTAAAGGTGGTGT
DNA 2: ACACCACCTTTACTACTTGATTTTTGAGTCGACTATCATTGTAGT
As to B6, in the series with FadRSa [12], the binding result is reported as “binds”.

B7: fadRSa operator 21-mer (dsDNA)
DNA 1: GTCGACTCAAAAATCAAGTAG
DNA 2: CTACTTGATTTTTGAGTCGAC
In the case of B7, the binding result with FadRSa [13] is “binds”.

The record behind these values is publication PMC6449355, “A TetR-family transcription factor regulates fatty acid metabolism in the archaeal model organism Sulfolobus acidocaldarius” (Nature Communications, 2019).
